According to FireProtDB (doi:10.1111/j.1432-1033.1994.tb18664.x):

B1: Ribonuclease HI, P0A7Y4 (parent)
chain: MLKQVEIFTDGSCLGNPGPGGYGAILRYRGREKTFSAGYTRTTNNRMELMAAIVALEALKEHCEVILSTDSQYVRQGITQWIHNWKKRGWKTADKKPVKNVDLWQRLDAALGQHQIKWEWVKGHAGHPENERCDELARAAAMNPTLEDTGYQVEV

Variants of: B1
Details: Escherichia coli (strain K12), Thermal, CD, NaCl 0.1 M, reversible: yes, structure 2RN2, whole UniProt chain shown
[1] = pH 5.5, 53.1 °C, Sodium acetate 20 mM

MLKQVEIFTDGSCLGNPGPGGYGAILRYRGREKTFSAGYTRTTNNRMELMAAIVALEALKEHCEVILSTDSQYVRQGITQWIHNWKKRGWKTADKKPVKNVDLWQRLDAALGQHQIKWEWVKGHAGHPENERCTELARAAAMNPTLEDTGYQVEV [D134T]
ddG of mutation (higher = less stable) (pH 3, 50 °C, glycine-HCl 10 mM): -0.12 kcal/mol | Tm (pH 3, glycine-HCl 10 mM): 50.4 °C | change of melting temperature, mutant - wild type (higher = more stable) (pH 3, glycine-HCl 10 mM): 0.4 °C | unfolding enthalpy (van 't Hoff) (pH 3, glycine-HCl 10 mM): 107 kcal/mol | Tm (pH 5.5, Sodium acetate 20 mM): 57 °C | change of melting temperature, mutant - wild type (higher = more stable) (pH 5.5, Sodium acetate 20 mM): 3.9 °C | unfolding enthalpy (van 't Hoff) (pH 5.5, Sodium acetate 20 mM): 90.2 kcal/mol

MLKQVEIFTDGSCLGNPGPGGYGAILRYRGREKTFSAGYTRTTNNRMELMAAIVALEALKEHCEVILSTDSQYVRQGITQWIHNWKKRGWKTADKKPVKNVDLWQRLDAALGQHQIKWEWVKGHAGHPENERCIELARAAAMNPTLEDTGYQVEV [D134I]
ddG of mutation (higher = less stable) (pH 3, 50 °C, glycine-HCl 10 mM): -0.69 kcal/mol | Tm (pH 3, glycine-HCl 10 mM): 52.3 °C | change of melting temperature, mutant - wild type (higher = more stable) (pH 3, glycine-HCl 10 mM): 2.3 °C | unfolding enthalpy (van 't Hoff) (pH 3, glycine-HCl 10 mM): 105 kcal/mol | ddG of mutation (higher = less stable) [1]: -1.27 kcal/mol | Tm (pH 5.5, Sodium acetate 20 mM): 57.7 °C | change of melting temperature, mutant - wild type (higher = more stable) (pH 5.5, Sodium acetate 20 mM): 4.6 °C | unfolding enthalpy (van 't Hoff) (pH 5.5, Sodium acetate 20 mM): 101 kcal/mol

MLKQVEIFTDGSCLGNPGPGGYGAILRYRGREKTFSAGYTRTTNNRMELMAAIVALEALKEHCEVILSTDSQYVRQGITQWIHNWKKRGWKTADKKPVKNVDLWQRLDAALGQHQIKWEWVKGHAGHPENERCVELARAAAMNPTLEDTGYQVEV [D134V]
ddG of mutation (higher = less stable) (pH 3, 50 °C, glycine-HCl 10 mM): -0.31 kcal/mol | Tm (pH 3, glycine-HCl 10 mM): 51.1 °C | change of melting temperature, mutant - wild type (higher = more stable) (pH 3, glycine-HCl 10 mM): 1.1 °C | unfolding enthalpy (van 't Hoff) (pH 3, glycine-HCl 10 mM): 107 kcal/mol | ddG of mutation (higher = less stable) [1]: -1.12 kcal/mol | Tm (pH 5.5, Sodium acetate 20 mM): 57.2 °C | change of melting temperature, mutant - wild type (higher = more stable) (pH 5.5, Sodium acetate 20 mM): 4.1 °C | unfolding enthalpy (van 't Hoff) (pH 5.5, Sodium acetate 20 mM): 99 kcal/mol

MLKQVEIFTDGSCLGNPGPGGYGAILRYRGREKTFSAGYTRTTNNRMELMAAIVALEALKEHCEVILSTDSQYVRQGITQWIHNWKKRGWKTADKKPVKNVDLWQRLDAALGQHQIKWEWVKGHAGHPENERCAELARAAAMNPTLEDTGYQVEV [D134A]
ddG of mutation (higher = less stable) (pH 3, 50 °C, glycine-HCl 10 mM): -0.89 kcal/mol | ddG of mutation (higher = less stable) [1]: -1.51 kcal/mol | Tm (pH 5.5, Sodium acetate 20 mM): 58.6 °C | change of melting temperature, mutant - wild type (higher = more stable) (pH 5.5, Sodium acetate 20 mM): 5.5 °C | unfolding enthalpy (van 't Hoff) (pH 5.5, Sodium acetate 20 mM): 118 kcal/mol

MLKQVEIFTDGSCLGNPGPGGYGAILRYRGREKTFSAGYTRTTNNRMELMAAIVALEALKEHCEVILSTDSQYVRQGITQWIHNWKKRGWKTADKKPVKNVDLWQRLDAALGQHQIKWEWVKGHAGHPENERCNELARAAAMNPTLEDTGYQVEV [D134N]
ddG of mutation (higher = less stable) (pH 3, 50 °C, glycine-HCl 10 mM): 0.1 kcal/mol | Tm (pH 3, glycine-HCl 10 mM): 49.7 °C | change of melting temperature, mutant - wild type (higher = more stable) (pH 3, glycine-HCl 10 mM): -0.3 °C | unfolding enthalpy (van 't Hoff) (pH 3, glycine-HCl 10 mM): 110 kcal/mol | Tm (pH 5.5, Sodium acetate 20 mM): 56.3 °C | change of melting temperature, mutant - wild type (higher = more stable) (pH 5.5, Sodium acetate 20 mM): 3.2 °C | unfolding enthalpy (van 't Hoff) (pH 5.5, Sodium acetate 20 mM): 96.9 kcal/mol

MLKQVEIFTDGSCLGNPGPGGYGAILRYRGREKTFSAGYTRTTNNRMELMAAIVALEALKEHCEVILSTDSQYVRQGITQWIHNWKKRGWKTADKKPVKNVDLWQRLDAALGQHQIKWEWVKGHAGHPENERCLELARAAAMNPTLEDTGYQVEV [D134L]
ddG of mutation (higher = less stable) (pH 3, 50 °C, glycine-HCl 10 mM): -1.15 kcal/mol | Tm (pH 3, glycine-HCl 10 mM): 53.8 °C | change of melting temperature, mutant - wild type (higher = more stable) (pH 3, glycine-HCl 10 mM): 3.8 °C | unfolding enthalpy (van 't Hoff) (pH 3, glycine-HCl 10 mM): 118 kcal/mol | ddG of mutation (higher = less stable) [1]: -1.51 kcal/mol | Tm (pH 5.5, Sodium acetate 20 mM): 58.6 °C | change of melting temperature, mutant - wild type (higher = more stable) (pH 5.5, Sodium acetate 20 mM): 5.5 °C | unfolding enthalpy (van 't Hoff) (pH 5.5, Sodium acetate 20 mM): 96.4 kcal/mol

MLKQVEIFTDGSCLGNPGPGGYGAILRYRGREKTFSAGYTRTTNNRMELMAAIVALEALKEHCEVILSTDSQYVRQGITQWIHNWKKRGWKTADKKPVKNVDLWQRLDAALGQHQIKWEWVKGHAGHPENERCHELARAAAMNPTLEDTGYQVEV [D134H]
ddG of mutation (higher = less stable) (pH 3, 50 °C, glycine-HCl 10 mM): -0.53 kcal/mol | Tm (pH 3, glycine-HCl 10 mM): 51.7 °C | change of melting temperature, mutant - wild type (higher = more stable) (pH 3, glycine-HCl 10 mM): 1.7 °C | unfolding enthalpy (van 't Hoff) (pH 3, glycine-HCl 10 mM): 106 kcal/mol | ddG of mutation (higher = less stable) [1]: -1.94 kcal/mol

MLKQVEIFTDGSCLGNPGPGGYGAILRYRGREKTFSAGYTRTTNNRMELMAAIVALEALKEHCEVILSTDSQYVRQGITQWIHNWKKRGWKTADKKPVKNVDLWQRLDAALGQHQIKWEWVKGHAGHPENERCQELARAAAMNPTLEDTGYQVEV [D134Q]
ddG of mutation (higher = less stable) (pH 3, 50 °C, glycine-HCl 10 mM): -0.48 kcal/mol | Tm (pH 3, glycine-HCl 10 mM): 51.6 °C | change of melting temperature, mutant - wild type (higher = more stable) (pH 3, glycine-HCl 10 mM): 1.6 °C | unfolding enthalpy (van 't Hoff) (pH 3, glycine-HCl 10 mM): 114 kcal/mol | ddG of mutation (higher = less stable) [1]: -1.32 kcal/mol | Tm (pH 5.5, Sodium acetate 20 mM): 57.9 °C | change of melting temperature, mutant - wild type (higher = more stable) (pH 5.5, Sodium acetate 20 mM): 4.8 °C | unfolding enthalpy (van 't Hoff) (pH 5.5, Sodium acetate 20 mM): 96.9 kcal/mol

MLKQVEIFTDGSCLGNPGPGGYGAILRYRGREKTFSAGYTRTTNNRMELMAAIVALEALKEHCEVILSTDSQYVRQGITQWIHNWKKRGWKTADKKPVKNVDLWQRLDAALGQHQIKWEWVKGHAGHPENERCEELARAAAMNPTLEDTGYQVEV [D134E]
ddG of mutation (higher = less stable) (pH 3, 50 °C, glycine-HCl 10 mM): -0.72 kcal/mol | Tm (pH 3, glycine-HCl 10 mM): 52.4 °C | change of melting temperature, mutant - wild type (higher = more stable) (pH 3, glycine-HCl 10 mM): 2.4 °C | unfolding enthalpy (van 't Hoff) (pH 3, glycine-HCl 10 mM): 108 kcal/mol | ddG of mutation (higher = less stable) [1]: -0.86 kcal/mol | Tm (pH 5.5, Sodium acetate 20 mM): 56.2 °C | change of melting temperature, mutant - wild type (higher = more stable) (pH 5.5, Sodium acetate 20 mM): 3.1 °C | unfolding enthalpy (van 't Hoff) (pH 5.5, Sodium acetate 20 mM): 102 kcal/mol

MLKQVEIFTDGSCLGNPGPGGYGAILRYRGREKTFSAGYTRTTNNRMELMAAIVALEALKEHCEVILSTDSQYVRQGITQWIHNWKKRGWKTADKKPVKNVDLWQRLDAALGQHQIKWEWVKGHAGHPENERCSELARAAAMNPTLEDTGYQVEV [D134S]
ddG of mutation (higher = less stable) (pH 3, 50 °C, glycine-HCl 10 mM): -0.26 kcal/mol | Tm (pH 3, glycine-HCl 10 mM): 50.9 °C | change of melting temperature, mutant - wild type (higher = more stable) (pH 3, glycine-HCl 10 mM): 0.9 °C | unfolding enthalpy (van 't Hoff) (pH 3, glycine-HCl 10 mM): 106 kcal/mol | ddG of mutation (higher = less stable) [1]: -1.08 kcal/mol
